± gives the uncertainty stated by the source.
Experiment: protein stability index of a GFP-peptide fusion (yeast GPS) (PSI 1-4); higher = more stable; sorted into four equal gates, so the index is relative within each strain
Method in brief: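 For each peptide, the protein stability index sums the read frequency in every gate after multiplying it by the gate number. Read frequencies came from plasmids that were PCR-amplified from each gate and Illumina-sequenced, with reads assigned to strains by barcodes. The gates were four equal bins of GFP/Cherry fluorescence ratio applied to mid-log yeast in leucine-free medium carrying a pooled library of tiled 17-residue yeast protein peptides fused downstream of GFP on a Cherry-expressing plasmid.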

Row | Sequence | protein stability index (doa10∆) | protein stability index (pdr5∆) | protein stability index (san1∆) | protein stability index (ubr1∆)
1 | IGVRCYEAYPNTSLPPS [FAS1] | 2.29 ± 0.036 | 2.33 ± 0.032 | 2.59 ± 0.034 | 2.54 ± 0.028
2 | QCNYSSLVFNRKLAVER [PRE5] | 2.23 ± 0.2 | 1.5 ± 0.18 | 1.46 ± 0.19 | 1.67 ± 0.2
3 | ACEPTAEKFVPIDIFQI [SIR3] | 2.72 ± 0.092 | 2.71 ± 0.059 | 2.66 ± 0.07 | 2.98 ± 0.048
4 | HPYLFEGAEPGPPYTTD [ISW2] | 3.04 ± 0.06 | 3.14 ± 0.066 | 3.07 ± 0.05 | 3.18 ± 0.053
5 | DAKSSAYSSRFQTPFRR [RPL5] | 2.82 ± 0.067 | 2.83 ± 0.052 | 2.78 ± 0.054 | 2.91 ± 0.05
6 | YISKAQNDQWSIQMEFM [SSN2] | 2.79 ± 0.064 | 2.73 ± 0.071 | 2.71 ± 0.059 | 3.04 ± 0.053
7 | PPLTSQYSTRHDAPRGL [SWI3] | 3.13 ± 0.047 | 3.19 ± 0.06 | 3.14 ± 0.05 | 3.21 ± 0.045
8 | EEEVDIDMDKLNTVLIA [RRP43] | 3.35 ± 0.091 | 3.32 ± 0.095 | 3.02 ± 0.077 | 2.89 ± 0.068
9 | AVKYGLNHVVALIENKK [RPL8A] | 2.26 ± 0.19 | 2.48 ± 0.12 | – | 2.45 ± 0.067
10 | NQVTDSSQLNKLTDEQS [SIR3] | 2.71 ± 0.063 | 2.74 ± 0.069 | 2.82 ± 0.07 | 2.68 ± 0.072
11 | PSYVHFKVQIIELLSYL [YML103C/NUP188] | 1.41 ± 0.063 | 2.27 ± 0.065 | 1.8 ± 0.072 | 2.04 ± 0.05
12 | NLPGNITVVLGVNGYIW [RRP4] | 2.01 ± 0.15 | 2.64 ± 0.093 | 1.67 ± 0.12 | 2.5 ± 0.066
13 | NLANEQPVLEKPLKKGS [SIR4] | 2.31 ± 0.18 | 2.83 ± 0.093 | 3.08 ± 0.13 | 2.32 ± 0.089
14 | KADTDTLLYEQIIQRDK [SNF5] | 3.23 ± 0.11 | 3.37 ± 0.11 | 3.21 ± 0.062 | 3.29 ± 0.064
15 | RNSFIRDMIMKRNSDKV [ITC1] | 2.84 ± 0.16 | 2.86 ± 0.14 | 2.29 ± 0.16 | 2.83 ± 0.2
16 | NYESVFTYNKFLLNQNK [YIL149C/MLP2] | 1.47 ± 0.045 | 1.92 ± 0.049 | 2.24 ± 0.1 | 2.26 ± 0.049
17 | DNWNAPLIMATCGSKGS [RPO31] | 2.57 ± 0.2 | 2.4 ± 0.11 | – | 2.43 ± 0.075
18 | FHESGSQYSTMVNIGLH [RGR1] | 3.19 ± 0.12 | 3.19 ± 0.11 | 2.7 ± 0.18 | 3.27 ± 0.14
19 | LLEQKKSIINSQRPGAR [ITC1] | – | 2.67 ± 0.2 | 2.47 ± 0.23 | 2.62 ± 0.11
20 | DSYIALYEKDIVPSMTH [RET1] | 2.5 ± 0.066 | 2.51 ± 0.07 | 2.46 ± 0.075 | 2.65 ± 0.067
21 | EHDLLRQIRPIMERIKS [ITC1] | 1.37 ± 0.28 | 2.3 ± 0.27 | – | –
22 | NLPKEGDIVLTRVTRLS [CSL4] | 2.58 ± 0.13 | – | 2.48 ± 0.26 | –
23 | KCNDGVVFAVEKLITSK [PRE10] | – | – | 2.87 ± 0.22 | –
24 | TVDGRLYQLFKTCIQGI [YJL039C/NUP192] | 2.86 ± 0.16 | 2.98 ± 0.23 | 3.03 ± 0.11 | –
25 | MTTVSGRDAFHLRVRVH [RPL10] | 1.33 ± 0.16 | – | – | –
26 | LQDWQREDEFGSIPSLT [YDL088C/ASM4] | 3.22 ± 0.073 | 3.19 ± 0.066 | 3.11 ± 0.049 | 3.53 ± 0.082
27 | TISSADFIQNVGRLWDQ [ECM29] | 2.98 ± 0.15 | 3.5 ± 0.14 | 3.39 ± 0.083 | 3.42 ± 0.061
28 | KLFNKWSFEEVEVKDAS [RPS5] | 2.17 ± 0.087 | 1.77 ± 0.072 | 1.4 ± 0.15 | 1.67 ± 0.06

From the supplement of paper PMC9732359
